We go through four substances from patent US20030091594A1.

In general, Kd refers to the free concentration of one partner at which half of the binding sites on the other are occupied at equilibrium, for simple one-to-one binding. Read a high Kd as weaker binding. As usually defined, the koff is the first-order rate constant of dissociation. Read a low koff as slow dissociation. A word on the kon: it is the rate constant with which the complex forms. A higher kon goes with faster complex formation.

Where only a bound is given, the exact number is not on record here.

The target in experiment [1] is 8x-V3BaL Env (whole Env, on virions or effector cells) (HIV-1). Nature of the experiment: cell-based or functional assay.
The target of experiment [2] is IIIB-V3BaL Env on luciferase reporter virions (HIV-1). The experiment in a line: cell-based or functional assay.
The target of experiment [3] is CD4-induced (CD4i) monoclonal antibody 17b. The experiment in a line: SPR (BIACORE 2000), MAb 17b amine-coupled to CM5 chip, gp120 as analyte, 25 C. (In general: SPR reads the build-up and loss of mass on a sensor chip optically.)
Experiment [4] deals with CD4-induced (CD4i) monoclonal antibody 48d. Nature of the experiment: SPR (BIACORE 2000), MAb 48d amine-coupled to CM5 chip, gp120 as analyte, 25 C.

In experiment [1], “CD4-induced (CD4i) monoclonal antibody 48d” came in with a concentration for 50% neutralisation of luciferase reporter virus on GHOST-CCR5 cells of 3 ng/mL, a concentration for 90% neutralisation of luciferase reporter virus on GHOST-CCR5 cells above 200 ng/mL and a percent neutralisation at 200 ng/ml of 88%. For the same substance, in experiment [2], the concentration for 50% neutralisation of luciferase reporter virus on GHOST-CCR5 cells is above 5000 ng/mL and the concentration for 90% neutralisation of luciferase reporter virus on GHOST-CCR5 cells was above 5000 ng/mL.
Regarding “8x gp120 (soluble gp120 of the HIV-1/IIIBx 8x Env clone) (from UniProt P04578 33-511)”, in experiment [3], the Kd came out at 15 nM, the koff worked out at 0.002 s⁻¹ and the kon was found to be 100000 M⁻¹ s⁻¹. Also, in experiment [4], the Kd came out at 6 nM, the koff stood at 0.001 s⁻¹ and the kon worked out at 200000 M⁻¹ s⁻¹.
With “CD4-induced (CD4i) monoclonal antibody 17b”, the values for the concentration for 50% neutralisation of luciferase reporter virus on GHOST-CCR5 cells in experiment [1] and in experiment [2] were 2 ng/mL and 14 ng/mL, respectively. Moreover, the concentration for 90% neutralisation of luciferase reporter virus on GHOST-CCR5 cells in experiment [1] stood at 15 ng/mL; in experiment [2], 90 ng/mL.
monoclonal antibody 50.1: the concentration for 50% neutralisation of reporter virus in experiment [1] turned out to be 45 ng/mL; in experiment [2] it was 95 ng/mL. For the same substance, the concentration for 90% neutralisation of reporter virus in experiment [1] was determined as 610 ng/mL; in experiment [2] it was 375 ng/mL.
